In publication PMC7184779:

Molecular target: SADS-CoV papain-like protease 2 (PLP2) domain of nsp3, wild type (SADS-CoV)

With “ubiquitin-AMC (from UniProt P0CG48 1-76) (natural protein)” the kcat/Km of hydrolysis of Ub-AMC (AMC fluorescence, Michaelis-Menten fit) was 62700 M⁻¹ s⁻¹.
